Results as given in PMC10164574, “Fission yeast Swi2 designates cell-type specific donor and stimulates Rad51-driven strand exchange for mating-type switching”.

Target: T1, Swi2N (Schizosaccharomyces pombe, UniProt Q10668 1-391)
T1 sequence: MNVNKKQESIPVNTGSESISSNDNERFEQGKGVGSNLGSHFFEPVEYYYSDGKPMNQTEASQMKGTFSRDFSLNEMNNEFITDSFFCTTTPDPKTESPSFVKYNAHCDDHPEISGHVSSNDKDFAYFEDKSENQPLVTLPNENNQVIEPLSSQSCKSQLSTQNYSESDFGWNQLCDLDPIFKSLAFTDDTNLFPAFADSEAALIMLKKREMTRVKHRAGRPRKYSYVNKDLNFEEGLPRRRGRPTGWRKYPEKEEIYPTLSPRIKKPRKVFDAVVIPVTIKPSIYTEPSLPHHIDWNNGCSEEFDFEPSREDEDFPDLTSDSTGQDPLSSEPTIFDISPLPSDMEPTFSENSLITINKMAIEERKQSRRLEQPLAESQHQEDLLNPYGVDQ
Experiment: EMSA; 20 mM Tris-HCl pH 7.5, 100 mM NaCl, 5% glycerol, 1 mM DTT, room temperature 10 min; 1% agarose in TAE
Conditions: protein: recombinant; tags: His-SUMO removed by Ulp1; label: 5' FAM; single strand

B1: FAM-H1 (59 nt) (ssDNA)
DNA: CATGGAAACGAACGAGAGAAAACAAAGGAGAAAGACTATACATTTATATTACAAAAAAA
B1: no binding.
